In paper PMC3472557, “Structural Basis for ASPP2 Recognition by the Tumor Suppressor p73” (Journal of Molecular Biology, 2012):

Target: T1, ankyrin repeat and SH3 domains of human ASPP2 (residues P891–A1128) (human, UniProt Q13625 891-1128)
T1 construct: ASPP2 (53BP2), human, ankyrin repeat and SH3 domains, residues P891-A1128, UniProt Q13625; cloned into pCOEX-LIC1; The limits are stated for the crystallised construct; also called 53BP2; source: E. coli BL21(DE3) R3 pRARE, purified (nickel-Sepharose, TEV protease, HiTrap Q, Superdex 200); not shown: His6, N-terminal, cleaved
T1 sequence (looked up): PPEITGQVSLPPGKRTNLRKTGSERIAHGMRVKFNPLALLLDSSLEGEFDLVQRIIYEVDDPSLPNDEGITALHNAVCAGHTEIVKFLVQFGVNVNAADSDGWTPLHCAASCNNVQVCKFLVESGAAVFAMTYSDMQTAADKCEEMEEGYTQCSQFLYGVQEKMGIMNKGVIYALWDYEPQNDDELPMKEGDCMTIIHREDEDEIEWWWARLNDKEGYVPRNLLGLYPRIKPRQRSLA
Assay: native gel or EMSA; 20 uM ASPP2 with decreasing concentrations of p73 112-315; 4 °C overnight; 50 mM sodium phosphate, pH 7.2, 50 mM NaCl, 5 mM DTT, 50 mM L-arginine, 50 mM L-glutamate; 10% polyacrylamide gel in Tris-glycine, pH 8.3, Coomassie stain
Settings: both partners purified

B1: p73 DBD (p73 amino acids 112–315) (domain or fragment, human, UniProt O15350 112-315, looked up)
chain: APVIPSNTDYPGPHHFEVTFQQSSTAKSATWTYSPLLKKLYCQIAKTCPIQIKVSTPPPPGTAIRAMPVYKKAEHVTDVVKRCPNHELGRDFNEGQSAPASHLIRVEGNNLSQYVDDPVTGRQSVVVPYEPPQVGTEFTTILYNFMCNSSCVGGMNRRPILIIITLEMRDGQVLGRRSFEGRICACPGRDRKADEDHYREQQAL
notes: It may be a misprint for 112-311; source: E. coli BL21(DE3) R3 pRARE, purified (said of all proteins)
binding result: binds
